One substance from article PMC11160672 can be followed below.

The experiment concerns the target Biotin carboxylase AccC (E. coli) (UniProt P24182). Put plainly: SEC. A general note: In gel filtration, larger molecules generally elute earlier.

Take “Biotin-carboxy carrier protein AccB (from UniProt P0ABD8 1-156) (natural protein)”: the stoichiometry N came to 1.

Broadly, the stoichiometry N is a count of units in the complex or per binding partner.
